According to patent US20240181073A1, “Antibody-Drug Conjugates Comprising an Anti-BCMA Antibody” (Sorrento Therapeutics, Inc., priority 2021, published 2024):

Assays:
[1] = target: T1, Human BCMA (B Cell Maturation Antigen) (human, UniProt Q02223 1-184); experiment: cell-based or functional assay
T1 sequence: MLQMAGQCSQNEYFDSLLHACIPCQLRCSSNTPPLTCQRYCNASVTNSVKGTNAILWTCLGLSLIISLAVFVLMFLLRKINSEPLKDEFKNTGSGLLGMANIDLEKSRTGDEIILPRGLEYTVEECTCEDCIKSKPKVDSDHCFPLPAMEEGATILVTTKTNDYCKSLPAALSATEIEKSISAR

BCMA-negative K562 = experiment: In vitro cytotoxicity assay (CellTiter-Glo 2.0, 384-well), Example B2; format: cell-based, human; details: 5-day assays, FIG. 8
Method: (§1) The in vitro efficacies of ADCs anti-BCMA-Compound 50, anti-BCMA-Compound 51, anti-BCMA-Compound 52, and anti-BCMA-Compound 53, were compared to anti-BCMA-Compound 3. Anti-BCMA-AB1 clone was conjugated with compounds 50, 51, 52, 53 or 3 and the ADCs were evaluated using the following human cancer cell lines: BCMA-negative K562 and BCMA-positive NCI-H929, purchased from the American Type Culture Collection (ATCC; Manassas, VA).
(§2) Cell Culture Method: The cell lines were cultured in RPMI-1640 medium (Catalog #10-041-CV: Corning) supplemented with 10-20% fetal bovine serum (FBS; Catalog #MT35011CV; Corning) and 1× penicillin-streptomycin (Catalog #30-002-Cl, Corning) and maintained at 37° C. in a 5% C02 humidified environment. Viable cell counts were made by Trypan blue exclusion using a Countess or Countess II automated cell counter.
(§3) The in vitro assays were performed as follows: All cells were harvested by removal of a portion of the cell culture suspension followed by centrifugation at 300 g for 5 minutes, followed by resuspension in cell culture medium (described above in Cell Culture method), viable cell count (as described above in Cell Culture method), and then seeded into 384-well white wall clear bottom plates (Catalog #3765, Corning) at a density of 2,500 cells/well in growth media. Plates were maintained at 37° C. The outer wells of plates contained medium only and were used for background subtraction for the cell viability assay. Working solutions of test articles were prepared at 2× final concentrations with 5-fold serial dilutions in complete growth medium. Cell treatment was performed in either technical triplicates or duplicates and maintained at 37° C. for 120-hour assay. After treatment, cell viability was determined by CellTiter-Glo 2.0 assay (Catalog #G9243; Promega; Madison, WI, USA) based on the manufacturer's instructions. CellTiter Glo reagent reacts with ATP in metabolically active cells to give a luminescent readout that is directly proportional to the number of viable cells. Briefly, plates were removed from the incubator and equilibrated to room temperature before addition of CellTiter Glo reagent. Luminescence was measured using a Tecan Spark microplate reader (Tecan; Mannedorf, Switzerland).
(§4) Data Analysis: For Cytotoxicity assays, raw luminescence data was background subtracted with average luminescence from the outer wells containing medium only and normalized to untreated controls using Excel (Microsoft; Albuquerque, NM). Dose-response relationships and EC50 values were determined based on non-linear regression analysis of normalized data fit to a four-parameter logistic equation using GraphPad Prism 8.0.

BCMA-positive NCI-H929 = experiment: as above; format: cell-based, human; details: for effect on NCI-H929 cell viability: 5-day assays, FIG. 8; for EC50 order of magnitude: comparison of linker chemistry among C-lock conjugations
Method: as §1, §2, §3, §4

NCI-H929 tumor xenograft = experiment: In vivo efficacy, NCI-H929 tumor xenograft in SCID beige mice; set-up: species or system CB17 SCID beige mice; details: Experiment IV, FIG. 6
Method: Female CB17 SCID beige mice, 6 weeks of age, were purchased from Charles River Laboratories.
Human multiple myeloma tumor cell lines NCI-H929 and OPM2 were cultured and expanded in RPMI 1640 medium supplemented with 10% FBS, 100 units/ml of penicillin and 100 μg/ml of streptomycin at 37° C. in a 5% CO2 humidified environment for a period of 2-3 weeks before harvesting for implantation. Cell viability determined by Trypan blue dye exclusion assay was >90% before implantation. 5 million of OPM2 or NCI-H929 cells in 100 μl of PBS—Matrigel 1:1 (v/v) mixture were inoculated to the right upper flank of each mouse by s.c. injection.
Tumor volume measurement was started at day 14 after tumor cell inoculation and performed twice weekly. The longest longitudinal diameter as length and the widest transverse diameter as width were measured by using a digital caliper. Tumor volume (TV) were then calculated by the formula: TV=[length×(width)^2]/2 and were analyzed in Excel.
The treatment was started when average tumor size reaches ˜400, 200 and 150 mm^3 for NCI-H929 tumor xenografts in Experiment I, III and IV, respectively, or ˜240 mm^3 for OPM2 tumor xenograft in Experiment I.
Mice were euthanized when tumor size reached 2000 mm^3.
After tumor-bearing mice were randomized, anti-BCMA antibody (BCMA-AB1 or BCMA-AB2), anti-BCMA antibody conjugate with Compound 3 (BCMA-AB1-3 or BCMA-AB2-3) or iso-type antibody conjugate with Compound 3 (iso-3) diluted in PBS were administered to mice through i.p. injections. Treatment regimens included 8 mg/kg once, 4 mg/kg Q1W×2 and 2 mg/kg biw×4 of anti-BCMA-AB1 or anti-BCMA-AB1-Compound 3 in Experiment I (FIG. 3); 2 mg/kg biw×4 and 0.67 mg/kg biw×4 of anti-BCMA-AB1 or anti-BCMA-AB1-Compound 3 in Experiment II (FIG. 4); 1, 2, 4, and 8 mg/kg once of anti-BCMA-AB1-Compound 3 or iso-3 in Experiment III (FIG. 5); and 4 mg/kg biw×4 of anti-BCMA-AB2 or 2 and 4 mg/kg biw×4 of anti-BCMA-AB2-Compound 3 in Experiment IV (FIG. 6).
Raw data of tumor measurements were analyzed in Excel. Tumor growth curves were plotted using GraphPad Prism 8.0 software and values were presented as mean t SEM.

[2] = target: T1, Human BCMA (B Cell Maturation Antigen); experiment: cell-based or functional assay; remark: listed apart in the source
[3] = target: T1, Human BCMA (B Cell Maturation Antigen); experiment: cell-based or functional assay; remark: listed apart in the source

B1: anti-BCMA-AB1-Compound 50 (antibody, human IgG1, V domains shown)
VH: EVQLVESGGGLVKPGGSLRLSCAASGFTSSTAWMSWVRQAPGKGLEWVGRIKSKSDGGTTDYAAPVKGRFTISRDDSKNTLFLQMNSLKTEDTAVYYCAKGGGTYGYWGQGTTVTVSS
VL: QSVLTQPASVSGSPGQSVTISCTGTSSAHGGHYYVSWYQQHPGKAPKLMIYDVSNRPSGVSNRFSGSKSGNTASLTISGLQAEDEADYYCGSYTSSGSYVFGTGTKLTVL
modifications: drug-linker Compound 50 on antibody cysteine thiols (C-lock linkage; positions not stated)
- EC50 of cell viability (CellTiter-Glo 2.0), NCI-H929 (BCMA-positive) cells, 120-hour assay [1]: 0.762 nM

B2: ADC-52 (conjugate)
VH: EVQLVESGGGLVKPGGSLRLSCAASGFTSSTAWMSWVRQAPGKGLEWVGRIKSKSDGGTTDYAAPVKGRFTISRDDSKNTLFLQMNSLKTEDTAVYYCAKGGGTYGYWGQGTTVTVSS
VL: QSVLTQPASVSGSPGQSVTISCTGTSSAHGGHYYVSWYQQHPGKAPKLMIYDVSNRPSGVSNRFSGSKSGNTASLTISGLQAEDEADYYCGSYTSSGSYVFGTGTKLTVL
- activity against K562 cells (BCMA-negative K562): did not show activity
- effect on NCI-H929 cell viability (BCMA-positive NCI-H929): dose-dependently reduced
- enhanced potency compared to ADC-3 (BCMA-positive NCI-H929; NCI-H929): ~2 fold
- EC50 order of magnitude (BCMA-positive NCI-H929): sub-nanomolar

B3: BCMA-AB2-3: Compound 3 conjugated with anti-BCMA antibody clone BCA7-2E1 (AB2) (conjugate)
VH: EVQLVESGGGLVKPGGSLRLSCAASGFTSSTAWMSWVRQAPGKGLEWVGRIKSKSDGGTTDYAAPVKGRFTISRDDSKNTLFLQMNSLKTEDTAVYYCAKGGGTYGYWGQGTTVTVSS
VL: QSALTQPASVSGSPGQSVTISCTGTSSDGGGHTYVSWYQQHPGKAPKLMIYDVSNRPSWVSNRFSGSKSGNTASLTISGLQAEDEADYYCGSYTSSGSYVFGTGTKLTVL
- tumor regression / elimination (NCI-H929 tumor xenograft; both regimens): induced dramatic and prolonged tumor regressions and eliminated all tumors in about two weeks after initial treatments
- tumor growth (NCI-H929 tumor xenograft; i.p., 2 and 4 mg/kg biw×4): significantly inhibited tumor growth

B4: anti-BCMA-AB1-Compound 3 (antibody, human IgG1, V domains shown)
VH: EVQLVESGGGLVKPGGSLRLSCAASGFTSSTAWMSWVRQAPGKGLEWVGRIKSKSDGGTTDYAAPVKGRFTISRDDSKNTLFLQMNSLKTEDTAVYYCAKGGGTYGYWGQGTTVTVSS
VL: QSVLTQPASVSGSPGQSVTISCTGTSSAHGGHYYVSWYQQHPGKAPKLMIYDVSNRPSGVSNRFSGSKSGNTASLTISGLQAEDEADYYCGSYTSSGSYVFGTGTKLTVL
modifications: drug-linker Compound 3 on antibody cysteine thiols (C-lock conjugation; positions not stated)
- EC50 of cell viability (Cell Titer-Glo), MM.1R (BCMA+) cells, 5-day assay [2]: 2.28 nM
- EC50 of cell viability (Cell Titer-Glo), NCI-H929 (BCMA+) cells, 5-day assay [2]: 0.699 nM
- EC50 of cell viability (CellTiter-Glo 2.0), NCI-H929 (BCMA-positive) cells, 120-hour assay [1]: 0.368 nM
- EC50 of cell viability (Cell Titer-Glo), MM.1R (BCMA+) cells, 4-day assay [3]: 10 nM
- EC50 of cell viability (Cell Titer-Glo), NCI-H929 (BCMA+) cells, 4-day assay [3]: 2.21 nM

B5: ADC-51 (conjugate)
VH: EVQLVESGGGLVKPGGSLRLSCAASGFTSSTAWMSWVRQAPGKGLEWVGRIKSKSDGGTTDYAAPVKGRFTISRDDSKNTLFLQMNSLKTEDTAVYYCAKGGGTYGYWGQGTTVTVSS
VL: QSVLTQPASVSGSPGQSVTISCTGTSSAHGGHYYVSWYQQHPGKAPKLMIYDVSNRPSGVSNRFSGSKSGNTASLTISGLQAEDEADYYCGSYTSSGSYVFGTGTKLTVL
- activity against K562 cells (BCMA-negative K562): did not show activity
- effect on NCI-H929 cell viability (BCMA-positive NCI-H929): dose-dependently reduced
- EC50 order of magnitude (BCMA-positive NCI-H929): single digit nanomolar

B6: anti-BCMA-AB1-Compound 51 (antibody, human IgG1, V domains shown)
VH: EVQLVESGGGLVKPGGSLRLSCAASGFTSSTAWMSWVRQAPGKGLEWVGRIKSKSDGGTTDYAAPVKGRFTISRDDSKNTLFLQMNSLKTEDTAVYYCAKGGGTYGYWGQGTTVTVSS
VL: QSVLTQPASVSGSPGQSVTISCTGTSSAHGGHYYVSWYQQHPGKAPKLMIYDVSNRPSGVSNRFSGSKSGNTASLTISGLQAEDEADYYCGSYTSSGSYVFGTGTKLTVL
modifications: drug-linker Compound 51 on antibody cysteine thiols (C-lock linkage; positions not stated)
- EC50 of cell viability (CellTiter-Glo 2.0), NCI-H929 (BCMA-positive) cells, 120-hour assay [1]: 1.93 nM

B7: anti-BCMA-AB1-Compound 53 (antibody, human IgG1, V domains shown)
VH: EVQLVESGGGLVKPGGSLRLSCAASGFTSSTAWMSWVRQAPGKGLEWVGRIKSKSDGGTTDYAAPVKGRFTISRDDSKNTLFLQMNSLKTEDTAVYYCAKGGGTYGYWGQGTTVTVSS
VL: QSVLTQPASVSGSPGQSVTISCTGTSSAHGGHYYVSWYQQHPGKAPKLMIYDVSNRPSGVSNRFSGSKSGNTASLTISGLQAEDEADYYCGSYTSSGSYVFGTGTKLTVL
modifications: drug-linker Compound 53 conjugated to the antibody (PFP linkage; residues not stated)
- EC50 of cell viability (CellTiter-Glo 2.0), NCI-H929 (BCMA-positive) cells, 120-hour assay [1]: 0.398 nM

B8: anti-BCMA-AB1-Compound 52 (antibody, human IgG1, V domains shown)
VH: EVQLVESGGGLVKPGGSLRLSCAASGFTSSTAWMSWVRQAPGKGLEWVGRIKSKSDGGTTDYAAPVKGRFTISRDDSKNTLFLQMNSLKTEDTAVYYCAKGGGTYGYWGQGTTVTVSS
VL: QSVLTQPASVSGSPGQSVTISCTGTSSAHGGHYYVSWYQQHPGKAPKLMIYDVSNRPSGVSNRFSGSKSGNTASLTISGLQAEDEADYYCGSYTSSGSYVFGTGTKLTVL
modifications: drug-linker Compound 52 on antibody cysteine thiols (C-lock linkage; positions not stated)
- EC50 of cell viability (CellTiter-Glo 2.0), NCI-H929 (BCMA-positive) cells, 120-hour assay [1]: 0.169 nM

B9: ADC-53 (conjugate)
VH: EVQLVESGGGLVKPGGSLRLSCAASGFTSSTAWMSWVRQAPGKGLEWVGRIKSKSDGGTTDYAAPVKGRFTISRDDSKNTLFLQMNSLKTEDTAVYYCAKGGGTYGYWGQGTTVTVSS
VL: QSVLTQPASVSGSPGQSVTISCTGTSSAHGGHYYVSWYQQHPGKAPKLMIYDVSNRPSGVSNRFSGSKSGNTASLTISGLQAEDEADYYCGSYTSSGSYVFGTGTKLTVL
- activity against K562 cells (BCMA-negative K562): did not show activity
- effect on NCI-H929 cell viability (BCMA-positive NCI-H929): dose-dependently reduced
